Where no end group is shown, it is not given here. [ ]: non-standard residue; d: D form. Aib = CC(C)(N)C(=O)O
What was measured:
Test in all cases: cell-based or functional assay
[1] = target: human glucagon receptor (GCGR) (human, UniProt P47871 26-477)
[2] = target: human GLP-1 receptor (GLP-1R) (human, UniProt P43220 24-463)
Target sequence in this assay (P43220 24-463): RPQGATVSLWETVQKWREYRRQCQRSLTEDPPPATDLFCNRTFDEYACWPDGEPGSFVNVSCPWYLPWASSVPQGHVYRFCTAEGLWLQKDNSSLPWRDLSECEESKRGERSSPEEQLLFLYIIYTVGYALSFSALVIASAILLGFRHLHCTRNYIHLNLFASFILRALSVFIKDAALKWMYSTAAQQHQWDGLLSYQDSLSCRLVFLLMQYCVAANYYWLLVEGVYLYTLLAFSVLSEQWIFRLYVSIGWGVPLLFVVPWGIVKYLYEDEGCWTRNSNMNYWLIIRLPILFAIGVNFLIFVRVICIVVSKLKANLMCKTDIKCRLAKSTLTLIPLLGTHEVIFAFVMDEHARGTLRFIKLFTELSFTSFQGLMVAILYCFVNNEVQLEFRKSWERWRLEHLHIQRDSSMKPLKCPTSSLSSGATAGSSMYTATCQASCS

[3] = target: human glucagon receptor (GCGR) (human, UniProt P47871 26-477); remark: listed apart in the source
[4] = target: human GLP-1 receptor (GLP-1R) (human, UniProt P43220 24-463); remark: listed apart in the source
Target sequence in this assay (P43220 24-463): as above

Binder | hGCGR pEC50 (cAMP) [1] [pEC50] | hGLP1 pEC50 (cAMP) [2] [pEC50] | hGCGR pEC50 (cAMP) mean (n = 3): 11 point curve starting at 1 nM [3] [pEC50] | hGLP1 pEC50 (cAMP) mean (n = 3): 11 point curve starting at 1 nM [4] [pEC50]
YSQGTFTSDYSKYLD[Aib]KRAQEFV[Aib]WLEDEPSSGAPPPS [Compound A94] | 14.1 | < 9 | – | –
YSHGTFTSDYSKYLD[Aib]KRAQEFV[Aib]WLEDEPSSGAPPPS-OH (N-terminus assumed; SMILES CC(C)C[C@H](NC(=O)[C@H](Cc1ccc(O)cc1)NC(=O)[C@H](CCCCN)NC(=O)[C@H](CO)NC(=O)[C@H](Cc1ccc(O)cc1)NC(=O)[C@H](CC(=O)O)NC(=O)[C@H](CO)NC(=O)[C@@H](NC(=O)[C@H](Cc1ccccc1)NC(=O)[C@@H](NC(=O)CNC(=O)[C@H](Cc1c[nH]cn1)NC(=O)[C@H](CO)NC(=O)[C@@H](N)Cc1ccc(O)cc1)[C@@H](C)O)[C@@H](C)O)C(=O)N[C@@H](CC(=O)O)C(=O)NC(C)(C)C(=O)N[C@@H](CCCCN)C(=O)N[C@@H](CCCNC(=N)N)C(=O)N[C@@H](C)C(=O)N[C@@H](CCC(N)=O)C(=O)N[C@@H](CCC(=O)O)C(=O)N[C@@H](Cc1ccccc1)C(=O)N[C@H](C(=O)NC(C)(C)C(=O)N[C@@H](Cc1c[nH]c2ccccc12)C(=O)N[C@@H](CC(C)C)C(=O)N[C@@H](CCC(=O)O)C(=O)N[C@@H](CC(=O)O)C(=O)N[C@@H](CCC(=O)O)C(=O)N1CCC[C@H]1C(=O)N[C@@H](CO)C(=O)N[C@@H](CO)C(=O)NCC(=O)N[C@@H](C)C(=O)N1CCC[C@H]1C(=O)N1CCC[C@H]1C(=O)N1CCC[C@H]1C(=O)N[C@@H](CO)C(=O)O)C(C)C) [Compound A99] | – | – | 12.5 | < 9
YSHGTFTSDYSKYLD[Aib]ARAQEFV[Aib]WLEDEPSSGAPPPS-OH (N-terminus assumed; SMILES CC(C)C[C@H](NC(=O)[C@H](Cc1ccc(O)cc1)NC(=O)[C@H](CCCCN)NC(=O)[C@H](CO)NC(=O)[C@H](Cc1ccc(O)cc1)NC(=O)[C@H](CC(=O)O)NC(=O)[C@H](CO)NC(=O)[C@@H](NC(=O)[C@H](Cc1ccccc1)NC(=O)[C@@H](NC(=O)CNC(=O)[C@H](Cc1c[nH]cn1)NC(=O)[C@H](CO)NC(=O)[C@@H](N)Cc1ccc(O)cc1)[C@@H](C)O)[C@@H](C)O)C(=O)N[C@@H](CC(=O)O)C(=O)NC(C)(C)C(=O)N[C@@H](C)C(=O)N[C@@H](CCCNC(=N)N)C(=O)N[C@@H](C)C(=O)N[C@@H](CCC(N)=O)C(=O)N[C@@H](CCC(=O)O)C(=O)N[C@@H](Cc1ccccc1)C(=O)N[C@H](C(=O)NC(C)(C)C(=O)N[C@@H](Cc1c[nH]c2ccccc12)C(=O)N[C@@H](CC(C)C)C(=O)N[C@@H](CCC(=O)O)C(=O)N[C@@H](CC(=O)O)C(=O)N[C@@H](CCC(=O)O)C(=O)N1CCC[C@H]1C(=O)N[C@@H](CO)C(=O)N[C@@H](CO)C(=O)NCC(=O)N[C@@H](C)C(=O)N1CCC[C@H]1C(=O)N1CCC[C@H]1C(=O)N1CCC[C@H]1C(=O)N[C@@H](CO)C(=O)O)C(C)C) [Compound A103] | – | – | 11.9 | < 9
YSQGTFTSDYSKYLD[Aib]KAAQEFV[Aib]WLEDEPSSGKPPPS [Compound A96] | 13 | < 9 | – | –
YSHGTFTSDYTRLLESKRAQEFVKWLEDEPSSGAPPPS-OH [Compound A98] | – | – | 12.2 | < 9
YSQGTFTSDYSKYLD[Aib]KAAQEFV[Aib]WLEDEPSSGAPPPS [Compound A95] | 13.3 | < 9 | – | –
YSHGTFTSDYSKYLDAARAQEFVKWLEDEPSSGAPPPS-OH [Compound A97] | – | – | 12.3 | < 9
YSHGTFTSDYSKYLD[Aib]KRAQEFV[Aib]WLEDE-OH (N-terminus assumed; SMILES CC(C)C[C@H](NC(=O)[C@H](Cc1ccc(O)cc1)NC(=O)[C@H](CCCCN)NC(=O)[C@H](CO)NC(=O)[C@H](Cc1ccc(O)cc1)NC(=O)[C@H](CC(=O)O)NC(=O)[C@H](CO)NC(=O)[C@@H](NC(=O)[C@H](Cc1ccccc1)NC(=O)[C@@H](NC(=O)CNC(=O)[C@H](Cc1c[nH]cn1)NC(=O)[C@H](CO)NC(=O)[C@@H](N)Cc1ccc(O)cc1)[C@@H](C)O)[C@@H](C)O)C(=O)N[C@@H](CC(=O)O)C(=O)NC(C)(C)C(=O)N[C@@H](CCCCN)C(=O)N[C@@H](CCCNC(=N)N)C(=O)N[C@@H](C)C(=O)N[C@@H](CCC(N)=O)C(=O)N[C@@H](CCC(=O)O)C(=O)N[C@@H](Cc1ccccc1)C(=O)N[C@H](C(=O)NC(C)(C)C(=O)N[C@@H](Cc1c[nH]c2ccccc12)C(=O)N[C@@H](CC(C)C)C(=O)N[C@@H](CCC(=O)O)C(=O)N[C@@H](CC(=O)O)C(=O)N[C@@H](CCC(=O)O)C(=O)O)C(C)C) [Compound A100] | – | – | 12.6 | < 9
YGHGTFTSDHSKYLD[Aib]KRAQEFVKWLEDE-OH (N-terminus assumed; SMILES CC(C)C[C@H](NC(=O)[C@H](Cc1c[nH]c2ccccc12)NC(=O)[C@H](CCCCN)NC(=O)[C@@H](NC(=O)[C@H](Cc1ccccc1)NC(=O)[C@H](CCC(=O)O)NC(=O)[C@H](CCC(N)=O)NC(=O)[C@H](C)NC(=O)[C@H](CCCNC(=N)N)NC(=O)[C@H](CCCCN)NC(=O)C(C)(C)NC(=O)[C@H](CC(=O)O)NC(=O)[C@H](CC(C)C)NC(=O)[C@H](Cc1ccc(O)cc1)NC(=O)[C@H](CCCCN)NC(=O)[C@H](CO)NC(=O)[C@H](Cc1c[nH]cn1)NC(=O)[C@H](CC(=O)O)NC(=O)[C@H](CO)NC(=O)[C@@H](NC(=O)[C@H](Cc1ccccc1)NC(=O)[C@@H](NC(=O)CNC(=O)[C@H](Cc1c[nH]cn1)NC(=O)CNC(=O)[C@@H](N)Cc1ccc(O)cc1)[C@@H](C)O)[C@@H](C)O)C(C)C)C(=O)N[C@@H](CCC(=O)O)C(=O)N[C@@H](CC(=O)O)C(=O)N[C@@H](CCC(=O)O)C(=O)O) [Compound A101] | – | – | 11.3 | < 9
YSHGTFTSDYSKWLD[Aib]KRAQEFVKWLEDE-OH (N-terminus assumed; SMILES CC(C)C[C@H](NC(=O)[C@H](Cc1c[nH]c2ccccc12)NC(=O)[C@H](CCCCN)NC(=O)[C@@H](NC(=O)[C@H](Cc1ccccc1)NC(=O)[C@H](CCC(=O)O)NC(=O)[C@H](CCC(N)=O)NC(=O)[C@H](C)NC(=O)[C@H](CCCNC(=N)N)NC(=O)[C@H](CCCCN)NC(=O)C(C)(C)NC(=O)[C@H](CC(=O)O)NC(=O)[C@H](CC(C)C)NC(=O)[C@H](Cc1c[nH]c2ccccc12)NC(=O)[C@H](CCCCN)NC(=O)[C@H](CO)NC(=O)[C@H](Cc1ccc(O)cc1)NC(=O)[C@H](CC(=O)O)NC(=O)[C@H](CO)NC(=O)[C@@H](NC(=O)[C@H](Cc1ccccc1)NC(=O)[C@@H](NC(=O)CNC(=O)[C@H](Cc1c[nH]cn1)NC(=O)[C@H](CO)NC(=O)[C@@H](N)Cc1ccc(O)cc1)[C@@H](C)O)[C@@H](C)O)C(C)C)C(=O)N[C@@H](CCC(=O)O)C(=O)N[C@@H](CC(=O)O)C(=O)N[C@@H](CCC(=O)O)C(=O)O) [Compound A102] | – | – | 12.4 | < 9

Source: patent publication US20180009871A1 (INTARCIA THERAPEUTICS, published 2018)
